The values that follow come from the supplement of paper PMC11246515.

± gives the standard deviation of the averaged measurements.

A short description of the data set: total protein half-life in vivo (active degradation + dilution); higher = more stable protein.
Setting [1] is: E. coli NCM3722 delta-clpP, growth: N-lim chemostat, doubling time 6 h.
[2] abbreviates: E. coli NCM3722 delta-hslV, growth: N-lim chemostat, doubling time 6 h.
The mark [3] stands for this setting: E. coli NCM3722 delta-lon, growth: N-lim chemostat, doubling time 6 h.
The mark [4] stands for this setting: E. coli NCM3722 delta-smpB, growth: N-lim chemostat, doubling time 6 h.
Setting [5] is: wild type E. coli NCM3722, growth: C-lim chemostat, doubling time 3 h.
Setting [6] is: wild type E. coli NCM3722, growth: C-lim chemostat, doubling time 6 h.
[7] abbreviates: wild type E. coli NCM3722, growth: C-lim chemostat, doubling time 12 h.
Where [8] appears, read: wild type E. coli NCM3722, growth: N-lim chemostat, doubling time 6 h.
[9] abbreviates: wild type E. coli NCM3722, growth: N-lim chemostat, doubling time 12 h.
Where [10] appears, read: wild type E. coli NCM3722, growth: P-lim chemostat, doubling time 6 h.
The mark [11] stands for this setting: wild type E. coli NCM3722, growth: P-lim chemostat, doubling time 12 h.
[12] abbreviates: E. coli NCM3722 delta-clpP delta-lon delta-hslV, growth: N-lim chemostat, doubling time 6 h.

“MSHVELQPGFDFQQAGKEVLAIERECLAELDQYINQNFTLACEKMFWCKGKVVVMGMGKSGHIGRKMAATFASTGTPSFFVHPGEAAHGDLGMVTPQDVVIAISNSGESSEITALIPVLKRLHVPLICITGRPESSMARAADVHLCVKVAKEACPLGLAPTSSTTATLVMGDALAVALLKARGFTAEDFALSHPGGALGRKLLLRVNDIMHTGDEIPHVKKTASLRDALLEVTRKNLGMTVICDDNMMIEGIFTDGDLRRVFDMGVDVRQLSIADVMTPGGIRVRPGILAVEALNLMQSRHITSVMVADGDHLLGVLHMHDLLRAGVV”: the “total protein half-life in vivo” value by setting is: under setting [1], 4.95 ± 1.9 h; under setting [2], 4.36 ± 0.2 h; under setting [3], 4.95 ± 0.44 h; under setting [4], 4.2 ± 0.2 h; under setting [5], 2.92 ± 0.13 h; under setting [6], 5.27 ± 0.15 h. Further, the “total protein half-life in vivo” value under setting [7] came out at 10.3 ± 2.3 h; the “total protein half-life in vivo” value under setting [8] amounted to 4.29 ± 0.37 h; the “total protein half-life in vivo” value under setting [9] turned out to be 7.36 ± 0.41 h; the “total protein half-life in vivo” value under setting [10] was 5.827 ± 0.055 h; the “total protein half-life in vivo” value under setting [11] was found to be 11.6 ± 0.54 h.

For “MTSLYLASGSPRRQELLAQLGVTFERIVTGIEEQRQPQESAQQYVVRLAREKARAGVAQTAKDLPVLGADTIVILNGEVLEKPRDAEHAAQMLRKLSGQTHQVMTAVALADSQHILDCLVVTDVTFRTLTDEDIAGYVASDEPLDKAGAYGIQGLGGCFVRKINGSYHAVVGLPLVETYELLSNFNALREKRDKHDG”, the “total protein half-life in vivo” value under setting [12] was found to be 4.55 ± 0.58 h; the “total protein half-life in vivo” value under setting [1] is 3.38 ± 0.24 h; the “total protein half-life in vivo” value under setting [2] was 3.17 ± 0.25 h; the “total protein half-life in vivo” value under setting [3] amounted to 3.02 h; the “total protein half-life in vivo” value under setting [4] amounted to 3.26 ± 0.49 h; the “total protein half-life in vivo” value under setting [5] was 3.2 ± 0.29 h. The “total protein half-life in vivo” value reads like this: under setting [6], 5.629 ± 0.034 h; under setting [7], 8.84 ± 0.45 h; under setting [8], 3.15 ± 0.4 h; under setting [9], 4.52 h; under setting [10], 5.41 h; under setting [11], 11.9 ± 1.7 h.

Turning to “MMQHQVNVSARFNPETLERVLRVVRHRGFHVCSMNMAAASDAQNINIELTVASPRSVDLLFSQLNKLVDVAHVAICQSTTTSQQIRA [P0ADG1]”, the “total protein half-life in vivo” value was 0.96 h under setting [1]; 0.664 h under setting [3]; 0.829 ± 0.59 h under setting [5]; 0.318 h under setting [6]; 0.533 h under setting [7]; 0.823 h under setting [8]. Moreover, the “total protein half-life in vivo” value reads like this: under setting [9], 0.848 ± 0.14 h; under setting [10], 0.343 h; under setting [11], 0.967 ± 0.53 h.

Consider “MHENQQPQTEAFELSAAEREAIEHEMHHYEDPRAASIEALKIVQKQRGWVPDGAIHAIADVLGIPASDVEGVATFYSQIFRQPVGRHVIRYCDSVVCHINGYQGIQAALEKKLNIKPGQTTFDGRFTLLPTCCLGNCDKGPNMMIDEDTHAHLTPEAIPELLERYK [P0AFD1]”, for which the “total protein half-life in vivo” value by setting is: under setting [12], 5.62 ± 0.92 h; under setting [1], 5.62 ± 0.45 h; under setting [3], 5.97 ± 0.51 h; under setting [4], 6.57 ± 0.34 h; under setting [5], 2.65 ± 0.54 h; under setting [6], 4.79 ± 0.22 h. In addition, the “total protein half-life in vivo” value came to 8.87 ± 1.4 h under setting [7]; 5.04 ± 0.18 h under setting [8]; 10.3 ± 0.36 h under setting [9]; 4.85 ± 0.61 h under setting [10]; 11 ± 0.14 h under setting [11].

Consider “MAKMRAVDAAMYVLEKEGITTAFGVPGAAINPFYSAMRKHGGIRHILARHVEGASHMAEGYTRATAGNIGVCLGTSGPAGTDMITALYSASADSIPILCITGQAPRARLHKEDFQAVDIEAIAKPVSKMAVTVREAALVPRVLQQAFHLMRSGRPGPVLVDLPFDVQVAEIEFDPDMYEPLPVYKPAASRMQIEKAVEMLIQAERPVIVAGGGVINADAAALLQQFAELTSVPVIPTLMGWGCIPDDHELMAGMVGLQTAHRYGNATLLASDMVFGIGNRFANRHTGSVEKYTEGRKIVHIDIEPTQIGRVLCPDLGIVSDAKAALTLLVEVAQEMQKAGRLPCRKEWVADCQQRKRTLLRKTHFDNVPVKPQRVYEEMNKAFGRDVCYVTTIGLSQIAAAQMLHVFKDRHWINCGQAGPLGWTIPAALGVCAADPKRNVVAISGDFDFQFLIEELAVGAQFNIPYIHVLVNNAYLGLIRQSQRAFDMDYCVQLAFENINSSEVNGYGVDHVKVAEGLGCKAIRVFKPEDIAPAFEQAKALMAQYRVPVVVEVILERVTNISMGSELDNVMEFEDIADNAADAPTETCFMHYE [P0AEP7]”, for which the “total protein half-life in vivo” value was determined as 5.98 ± 0.97 h under setting [12]; 3.5 ± 0.04 h under setting [1]; 4.16 ± 0.24 h under setting [2]; 3.51 h under setting [3]; 3.85 ± 0.4 h under setting [4]; 2.87 ± 0.1 h under setting [5]. Besides, the “total protein half-life in vivo” value is, setting by setting: under setting [7], 7.8 ± 3.2 h; under setting [8], 3.45 h; under setting [9], 5.7 ± 0.37 h; under setting [10], 5.49 ± 0.69 h; under setting [11], 11.9 ± 2 h.
